The DeepSol protein solubility set

Experiment: soluble on expression in E. coli; label from the status in PepcDB or PDB records
In the case of “MSLNISNVLFLLHQKFPDPLPDNPICTREETKLAGHLVNILKLAVDHDIDVEERDEVADETFSDWDSIEFEPNDGVIFSSPTELVFGGRVVTREEANTALDYYRSAKAGKRTLEAMRNRFRWITGRHDMDKLKLYEKDRDNFKESRRNLLKFLGERLYEEVKGRLDSGICLHDRDLKMIALDINKKETHVENFKACQTWITNWKRSYNIVSRKITKFVTRRYVRNKAATLQSAKDFVQGCRMDISSYGPEMIFNADQCGIQKELFGARSLAYLGEKSVERIVQSLSSLTHSFTFLPMIFMNGTLGPKAYMKIAEPTGHFPPSRPIPVCSNLEVHAGKSHIMTKDDMRVWLRNCVAHQQCPKKMLMIVDSWTSFKDHATIQSCMQNGVDLTIRNIPPGTTSLIQPLDVHFNGPWKTLIKNFTSYVMSFCPDYIIANRNNTIMMTSLLYHQVSAALFEPFLKYSWNKAGYTDSHDEFVTPADYCFGDVGEEECGFGGCSEFSFIRCARCNCQICFEHFVVDDQHFCPCP”, the “soluble on expression in E. coli” value is reported as “not soluble”.
With “MAHHHHHHMLRDELPPEKGQQSFSLWSRILRSIDGCKLEIVLDDQTEADKIKVVDIYDKVSERFPLYSWKEPVKGRVVVTPTGSSYSHQGVVVELIGVASTFREVESRVVFLRQERQFEPDTLNQSTPFEFTFSAPKEHESYHGIYARVRYFVQATVKQRIKSPSVKEEVWVHRVDTALSESQTDASAHMNYFRETCFGPESIAMNVGVDNVLHIEFRYDKKIFHLAERVLGKVEYKVADMDIAYGEVGLVRKEFLAPGQTDETMESETLQKFEIMDGTPIVEEVVPIRLYLKSVPRLTPSYMDVENLFSVRYFLNLVLVNQEGKRYFKQQEIQLYRRTGQERSATSFNSGLPVTPASGDVDAKGGWSA” the “soluble on expression in E. coli” value was “not soluble”.
In the case of “MKTRESSVGLKFRKFNRFYTNVLGFLNEHIYDSPFSLTETRILFEIYNTPNCTAKALQDKLGLDRGYVSRIVKQFEKEDLIYKQRSKDDARHHYIFVTETGKTIYKKLEEKANEQVELMLKVINQKEQHKLAEAMAEIEAILSQSLSARASEISIRDYFLSEDLQLLIEKQRQFYAEAHGWDDTFLAYLQETFDADIEKIWIAESGGKFAGSVGLVKHDEKTVQLRWFLVDADFRGRGLGTQLLEHLVAYCQDMKFDRIFLWTVSTMAEARPLYKKFGFRISEVKQEAPLWGQQLTEERWDLELS”, the “soluble on expression in E. coli” value is reported as “soluble”.
In the case of “MGSDKIHHHHHHMRRPRRPQDFLEYEKVLKFKESEKQIEETETKGDVRVALVVPSGYEVAASGLAFHYVQKLLNSHPRIRCERFFYDETFKKFYSLETQTPIDEFPIWLFSVSFENDFSNLLDILKKKDVPLSWKEREDYHPLIIIGGAVTYLNEEFLIPVADAVYYGELEKYLDLFTEALTGETKQEILSSLSRIPSVEVPSLKEHSEIATGVDLNDFLPHSSVVPSRGVFPGKLLVEVGRGCIRRCAFCIFGKNLKPARFVKPERFEELVKNTPYSEYGLISATITDYPWLEDLLDTVEKYQLKISVSSLRLDRLSERLLRTLKDSGQRSFTIAPEAGSQRIRDILKKDITDEQIENALKLARKLDFDRVKMYFIYGLEEETEEDLEAFKKLGDLAVRLGYREVHMSFNPLIPKPGTEFERRKMEPVDVLRKKEKILKNLLKGFRVDFESIRESVVQYTIAHAGKEEVESWLKFFEKSDKKLLGKLIYEEGRKRLC”, the “soluble on expression in E. coli” value is reported as “not soluble”.
For “MDYEIENNHADSIRRGSIEVICGSMFSGKTEELLRRLRRAKIARQTVEIFKPTIDIRYDETDVVSHDKNAIASTPVDNSANILLLSSQVDVVGIDEAQFFDEGLVEVAQQLADQGVRVVIAGLDMDFRRQPFGPMPGLCAIADSVTKVHAVCVECGRLASYSFRRVQGDQQVMLGELNEYSPLCRTCYRKCSSPPQTEEIHSTILEHHHHHH”, the “soluble on expression in E. coli” value was “soluble”.
With “MQNSTTEFLKPRQIDVNTFSATRAKVSMQPFERGFGHTLGNALRRILLSSMNGFAPTEVAIAGVLHEYSTVDGIQEDVVDILLNIKGIVFKLHGRSQVQLVLKKSGSGVVSAGDIELPHDVEILNPGHVICHLADNGQIEMEIKVEQGRGYQSVSGRQVVRDENRQIGAIQLDASFSPISRVSFEVEPARVEQRTDLDKLVLDIETDGSIDPEEAVRSAARILIDQMSIFADLQGTPVEEVEEKAPPIDPVLLRPVDDLELTVRSANCLKAEDIYYIGDLIQRTETELLKTPNLGRKSLNEIKEVLASKGLTLGSKLEAWPPVGLEKP” the “soluble on expression in E. coli” value was “soluble”.
In the case of “MKKSSEVMHQACDACRKKKWKCSKTVPTCTNCLKYNLDCVYSPQVVRTPLTRAHLTEMENR”, the “soluble on expression in E. coli” value is reported as “soluble”.
With “MAGNSIGQFFRVTTFGESHGIALGCIIDGVPPGIPITEADIQLDLDRRRPGTSRYTTQRRELDQVRILSGVFEGVTTGTSIGLMIENTDQRSQDYSAIKDVFRPGHADYTYEQKYGVRDYRGGGRSSARETAMRVAAGAIAKKYLAQKFGVQVRGYLAQMGDVSCDLLDWDLVEQNPFFCPDASKLEPLDALMRELKKAGDSIGAKITVVAENVPVGLGEPVFDRLDADLAHALMSINAVKGVEIGDGFAVVTKRGSENRDEITPQGFQSNHAGGILGGISSGQPVVAHIALKPTSSIMVPGQTINRQGEAVEMVTRGRHDPCVGIRAVPIAEAMMAIVLMDHLLRQRAQCGDVASDVPRW” the “soluble on expression in E. coli” value was “not soluble”.
With “MKNYIAIHPGEILREEYLKEYALSAYALAKALNVPRTRIERIVAENSRITPDTALRLASFFDTTAEFWLNMQAAYDVSVLQAEKADEFSKISKFECRV” the “soluble on expression in E. coli” value was “not soluble”.
For “LSAQEIIQYISDAKKSTPLKVYVNGHFENVTFPESFKVFGSEHSKVIFCEANEWKQFYQQNHSLITELEIEMDRRNSAIPLKDLTNTN”, the “soluble on expression in E. coli” value was “soluble”.
For “MAKRIVAMSSTHIAMLDAIGEVRCITGVSGIDYISNPDIQARRDSIGDVGYEGNINYELLLSLDPDLVLLYGVNGASAMESKLEELDIPFMYVGDYLEESPLGKAEWMVVLSEVTGKREKGEKAFAAIPVRYNALKKKVADSTLEHHHHHH”, the “soluble on expression in E. coli” value was “soluble”.
For “MGSDKIHHHHHHMSYITTKNQYITVSNNKIAYRELSKGKSDIPLVMLVHLAATLDNWDPKLLDLLAEQHHVIVLDLPGVGASQGKVAPTIPGMAEQAVSIIKALGYEKINLLGLSMGGFIAQEIVRLDSQLVNRLILAGTGPRGGFEVDKVTGKTFRYMLKAGLERVDPKRYIFYNHDEAGRLEAEKVLGRMGQRSAAHADKDMNVPGFLTQLKAIKRWGREPQDDMTFITQPTLIVNGDKDMQVPTENSYTMHEKIKNSQLIIYPNAGHGSIFQNVEDFSKALLAFLEETNA”, the “soluble on expression in E. coli” value was “not soluble”.
In the case of “MAHHHHHHMLSLCKSLSSDAPTRTKTRVVLSMFNASHVDELLASTTRTLQRSQVLLDERRSVIQSQQGLPPMFCVASSSAASTSVGSSAAAPYASASSSFADTVRSLQSLSELRSYVEATAEMMKRVREEGMEPSPAMQQRRARGQDFALLQSMTRGLRGAMTAAWQMSETTAALWAFSTEACGGAEEAAAAEDAASAAAGSTLCAVPGARSGGTRSSGAQLTSTLIFSAFCVDLAIAAPRAASAVAAELESVFEPSSDNGRPSSLVSEWMRDGNVKLSALLRDVAALLPPPVKTRLVARLADVLFRPSPALPRSPKESSGHPLGCELLSGGQLLLPSLDYYLLEQYPSSLASRWFLQPLQATAEHLRADYYASADQFHVQCRWLLRLVLTLLYACQSAALPTSTASRPPLERRLRTAQRLYDAWLIPLEKTFGNGTARHGMSVSFNRALVQPHGHMVERLLFTSSPASGVSGVSKVVQQSREWSGILYSAQYRLLLILEKLAHSEVAQVNGTSSTSAKQRTYETMLRQNGGKVSVSLLQTLAEDKQLLLDETPSRSPDGHRLYKLHDGLLDDSGKAVFVYLDDGALFTKVGRARAFQRVKSVEDIFKPLQ”, the “soluble on expression in E. coli” value is reported as “not soluble”.
For “MRSERSERSDDTDGDTTALALKILVAGGFGVGKTTLVGAVSEIRPLRTEELLSEAGRLVDDTDGIDRKVTTTVAMDFGRITIRSGLSLYLFGTPGQDRFWFLWDELAQGALGAVVLADTRRLADCFPAVDYFEHRHIPFVVAVNCFTGARRHDEYSVLRALDLDPGTPVVLCDARDRDSGKEVLIRLVEYAGRMHTARLLDSVRLEHHHHHH”, the “soluble on expression in E. coli” value was “not soluble”.
For “MLAGHTLIESKNDHQSRRNCEFRRAIAAAGRCRRVYGGALPLLASSVPMSVRMDTRHRQKQALAQTAATMIEPGEFIFLDSGSTNLALIDFLPKGYDLTLATNSIDIAGAALRGQDLKLIMLGGTVDLAVGGCVDATAIGSLAQMNIDRSFIGVCSVSPTFGLSAFDIADATFKRALVAASGYTIALATTDKLEVRAPHRVSEINEIDCLVLEHDAPISHLDDLVRAGASIVKALQPFAAALEHHHHHH”, the “soluble on expression in E. coli” value was “not soluble”.
In the case of “MKNTLLKLGVCVSLLGITPFVSTISSVQAERKVEHKVIKNETGTISISQLNKNVWVHTELGYFNGEAVPSNGLILNTSKGLVLVDSSWDDKLTKELIEMAEKKFKKSVTDVIITHAHADRIGGIKTLKERGIKAHSTTLTAELAKKNGYEEPLGDLQAITKLKFGNMKVETFYPGKGHTEDNIVVWLPQYNMLVGGCLVKSASAKDLGNITDAYVNEWSTSIENVLKRYENINFVVPGHGEVGDKGLLLHTLDLLK”, the “soluble on expression in E. coli” value is reported as “not soluble”.
For “MLSALLIAKRYSSKEDTMPHLFPDLPYAYDALEPYIDTKTMEVHYSKHHRTYYDKFLSAIKGTEHEDRPLSEIFARVSTLPAAVRNHGGGYYNHIVYWNCMKPNAGGEPQGELAAEIERQFGSFAQFKEAFSQAAVNTFGSGFVWLIVQQGQLSITSTSNQDNPLMDVVAVRGEPILALDVWEHAYYIRYQNRRPEYIDAWWNVVNWEAVSENYAIALTQAA”, the “soluble on expression in E. coli” value was “not soluble”.
For “MSLEEYPQMIVFEDVPYGFWAYDAIMDLAYHKIILGYGNGKYGVGDLTTREQVAGIIYRTLEMKEEGSVANPYKDISDSTTTFKKEILALTKRGVFTGDGQGNFRPKAPVSRAEMAVILKRAFTFETKQKHTFKDIPKGHWAEDAISALQSNNVVRGTGNGMYELNRPVPREQYAQFINNAIINYHLKEDWREGHHHHHH”, the “soluble on expression in E. coli” value was “not soluble”.
For “DVAVRTLSDVPSAAPQNLSLEVRNSKSIMIHWQPPAPATQNGQITGYKIRYRKASRKSDVTETLVSGTQLSQLIEGLDRGTEYNFRVAALTINGTGPATDWLSAETFESDLDETRVPEV”, the “soluble on expression in E. coli” value was “soluble”.
With “GPGSMRSAVTCIKSPGAALFTDTATCRTITLSRPDALNVMSLPMVQDLHRLYITEPHPNEDAVYVVRGDGRRSFCAGGDLKALTGPERDTHNPLFYRLEYEVDSHIAVMRRTQVAMWAGHVLGSGVGVSVHSRYRVACETTRFAMPETQIGGANDVATSWVFSSLPICGLGMYLAITGNALQGADVFHAGLATHYIPVEKFGAVEAALAALPSSEGVEECLRGFSEDVAVPPFTLAESAPVLAKAFGTITPWTRLRDIMDVLRADGSAFAASTLEVMERNSPLGMTLALENMKRQHTPGCNTVMESFRGDYTAIQTSIFADELAKGVEALFVTKEKRPQWTVESVDEVDVELVKQQFALTEGVRVSAGGKDGRACFGVFGCYRAQASPVG” the “soluble on expression in E. coli” value was “soluble”.
For “MGSDKIHHHHHHVATGTGLVAIPAAEKVGSEGYVIGIDMTPGMLHQARIKIAAAKLQNIELIEADVEYFNFSESSFDVVFCCEAIVLVPDILAILKKWYRFLKPGGFVAFTCPPETAFMASLQQRICARVLGVSLPHILEPLGTPEKCRNLLNQAGFRDIEIKIEPSGRYRPLRDNRLSEIAININFKGNPLLSKLSQEQLNQLQVEYKAEIEKLATEQGIWEDTTKLFVRARK”, the “soluble on expression in E. coli” value was “not soluble”.
For “MGSDKIHHHHHHMINSHQTQPLLRLENIEKSYGSHRILNKVSFCLYPGEITALIGDNGAGKSTLVQIISGYIQADKGNIYWQEQPLCYSNQYNAPFEMRRLGIQIVHQQLALIDELSIWRNFFLGNEINKKIGPFKFLNIRLMQHIASQSLQSFGLVCLPNIDLPVKKLSGGERQMLVVCRAKYFNAKLLILDEPTSALSPAQADKVLQIIKNIAQAGIAIVFITHNPAHIQNTAHKVIKLSCGTIEIMELTNTLIKG”, the “soluble on expression in E. coli” value was “not soluble”.
In the case of “MGNTAMWMSCNPTIPILFGIQVKIFPLNQIFNHIHPARYAVTFENNVDSKLRRHWVAGATIRIIDRQTDEVIAKKTIYVFEKGLDGTGGARMPWKFAILCNKERLTSSEPLSDFVLSVLKPYILRPLYIASLRRDD”, the “soluble on expression in E. coli” value is reported as “not soluble”.
